Test results published in patent US20210009673A1, “METHODS FOR REGULATING BREAST CANCERS” (priority 2018, published 2021).

Legend:
[1] = tested on: Src; assay: phospho-Src tyrosine 416 Western blot in PTN-stimulated U87MG cells; format: cell-based, human; conditions: 50 ng PTN/ml for 5, 10, 15 minutes
[2] = tested on: MCF-7 cells; assay: homophilic cell-cell adhesion assay (ratio NTC/NTE); format: cell-based
Experimental: (§1) FIG. 4: FIG. 4 illustrates in: (A), β-catenin phosphorylated by ALK at tyrosine 333 decreases the association of β-catenin with cadherin. Recombinant E-cadherin serine 692 was phosphorylated with CK2 and GSK3β and incubated with recombinant GST-β-catenin, with GST-β-catenin phosphorylated in vitro by ALK, with GST-β-catenin Y333F, or with GST-β-catenin K292A, Y333F, K335A. The GST-conjugated proteins were captured with glutathione-conjugated beads and the phospho-Ser692-E-cadherin that associated with the GST-conjugated proteins was eluted and analyzed in Western blots probed with anti-β-catenin and anti-E-cadherin antibodies. […] After incubation for 20 minutes at 37° C., β-catenin was then captured with glutathione beads and, after extensive washing, eluted with SDS buffer and analyzed in Western blots with either anti-pan-cadherin antibodies, anti-phospho-tyrosine antibodies, or anti-β-catenin antibodies to determine if β-catenin phosphorylated by ALK at tyrosine 333 associates with cadherin. […] The ratio of cells dissociated in calcium-containing media (NTC) vs. the cells dissociated in calcium-free media (NTE) (a “dissociation index,” see Experimental Procedures) was measured. […] The morphological appearance was then analyzed 36 hours later and compared with cells transfected with an equal amount of control empty vector. […]

[3] = tested on: MCF10A cells; assay: morphological epithelial to mesenchymal transition in transfected MCF10A cells; format: cell-based; conditions: MCF10A cells transfected with RPTPβ/ζ and ALK, stimulated with PTN
Experimental: as §1

[4] = tested on: β-catenin; assay: β-catenin import into nuclei of HUVS cells (Western blot of nuclear extracts); format: cell-based, human
Experimental: FIG. 13: FIG. 13 illustrates: (A) human umbilical vein stromal cells not stimulated or stimulated for 60 minutes with 1, 10, 25, 50, 100 and 200 ng/ml of PTN were used to isolate their nuclei and prepare lysates that were analyzed in Western blots probed with anti-β-catenin antibodies (upper panel) and anti-Orc-2 antibodies (lower panel). In (B), human umbilical vein stromal cells not stimulated or stimulated with 100 ng/ml of PTN for 5, 15, 30, 60 minutes were used to isolate their nuclei and prepare lysates that were analyzed in Western blots probed with anti-β-catenin antibodies (upper panel) and anti-Orc-2 antibodies (lower panel).
Cells at confluence were washed with PBS ×2 and incubated for 10 minutes in a lysis buffer containing 100 mM HEPES pH 7.9, 100 mM KCl, […], 1 mM DTT, Complete EDTA-free Protease Inhibitor Cocktail (Roche, Indianapolis, Ind.) and 0.04% IGEPAL (Sigma-Aldrich Co. Ltd, Poole, Dorset, UK). […] Samples were centrifuged and the supernatant nuclear extract was collected and analyzed in Western-blots as described below. […] It was detected with anti-Orc2 antibodies; tubulin was used to mark cytosolic fractions and detected with anti-tubulin antibodies. Samples of the nuclear fractions were used only if tubulin was not detected. […]

[5] = tested on: β-catenin; assay: phosphorylation of serines 33, 37 and threonine 41 in β-catenin in HUVS cells; format: cell-based, human; conditions: 2 minutes after PTN
Experimental: FIG. 11: FIG. 11 illustrates: human umbilical vein stromal cells not stimulated or stimulated with 50 ng/ml of PTN for 2, 5, 10 or 20 minutes were used to prepare cell lysates that were analyzed in Western blots probed with anti-phospho threonine 308 Akt (panel A), anti-phospho serine 473 Akt (panel B), anti-phospho-serine 9 GSK3β (panel C), anti-phospho-serine 33, 37 and […] β-catenin (panel D) or anti-actin antibodies (panel E). Akt was immunoprecipitated from those lysates using anti-Akt antibodies, incubated with a fusion peptide containing the 20 N-terminal amino acids of GSK3β and analyzed in Western-blots probed using anti-phospho-serine 9 GSK3β antibodies (panel F).
A key function of activated GSK3β in the pathway of β-catenin translocation into the nuclei is to phosphorylate β-catenin serines 33, 37 and threonine 41. […] The levels of phosphorylation of serine 33, 37 and threonine 41 in β-catenin were therefore measured in Western blots of lysates from PTN-stimulated cells probed with anti-β-catenin antibodies that recognize phosphoserines 33, 37 and threonine 41. […] In the control study, β-catenin phosphorylated in serines 33, 37 and threonine 41 was readily detected when the cells are not stimulated with PTN. […]

B1: pleiotrophin (protein, UniProt P21246 33-168, looked up)
Pleiotrophin: GKKEKPEKKVKKSDCGEWQWSVCVPTSGDCGLGTREGTRTGAECKQTMKTQRCKIPCNWKKQFGAECKYQFQAWGECDLNTALKTRTGSLKRALHNAECQKTVTISKPCGKLTKPKPQAESKKKKKEGKKQEKMLD
tyrosine phosphorylation of Src tyrosine 416 [1]: not increased | ratio NTC/NTE ([2]; PTN-stimulated MCF7 cells expressing both RPTPβ/ζ and ALK): about 0.38 | ratio NTC/NTE ([2]; PTN-stimulated MCF-7 cells transfected with ALK alone): about 0.25 | cell morphology [3]: assumed a mesenchymal fibroblast-like shape | β-catenin in nuclei ([4]; 1-200 ng/ml PTN, 5-60 minutes): concentration and time-dependent increase | PTN concentration at which increase in nuclear β-catenin was seen ([4]; 60 minutes): 10 ng/mL | phosphorylation of serines 33, 37 and threonine 41 in β-catenin [5]: sharply decreased
